Laboratory results from patent US20170158755A1 (PROTHENA BIOSCIENCES, published 2017).

T1: LGde3, human LAMA4 G domain with LG3 deleted, displayed on 293 cells (human, UniProt Q16363 830-1821, limits assumed)
T1 construct: pDisplay construct on 293 cells; vector tags and anchor not written here; also called LGde3 (LG12); LGde3 (LG23)
T1 sequence: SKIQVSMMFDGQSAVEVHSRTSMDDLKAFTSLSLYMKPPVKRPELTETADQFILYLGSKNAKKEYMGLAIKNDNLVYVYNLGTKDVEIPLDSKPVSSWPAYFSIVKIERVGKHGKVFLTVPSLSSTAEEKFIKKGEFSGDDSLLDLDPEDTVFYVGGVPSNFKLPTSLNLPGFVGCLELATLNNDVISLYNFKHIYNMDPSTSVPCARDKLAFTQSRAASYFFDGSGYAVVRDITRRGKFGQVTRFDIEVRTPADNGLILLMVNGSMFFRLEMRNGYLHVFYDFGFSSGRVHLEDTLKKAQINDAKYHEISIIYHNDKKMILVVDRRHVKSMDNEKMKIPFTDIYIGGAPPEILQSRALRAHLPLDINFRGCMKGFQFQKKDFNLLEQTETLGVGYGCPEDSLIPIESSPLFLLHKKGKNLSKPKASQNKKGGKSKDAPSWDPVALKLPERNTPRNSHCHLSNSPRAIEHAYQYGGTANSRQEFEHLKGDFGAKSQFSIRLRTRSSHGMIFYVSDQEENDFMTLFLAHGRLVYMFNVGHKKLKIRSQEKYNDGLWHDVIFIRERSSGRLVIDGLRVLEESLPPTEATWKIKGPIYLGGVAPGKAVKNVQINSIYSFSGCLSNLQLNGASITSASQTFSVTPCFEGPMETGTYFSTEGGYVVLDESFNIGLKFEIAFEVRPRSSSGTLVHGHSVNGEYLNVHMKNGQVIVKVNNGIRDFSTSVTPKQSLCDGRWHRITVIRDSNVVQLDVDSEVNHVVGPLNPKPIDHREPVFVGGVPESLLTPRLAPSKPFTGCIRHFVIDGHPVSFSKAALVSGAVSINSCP

T2: mouse His-laminin-α4 (mouse, UniProt P97927 826-1816, limits assumed)
T2 construct: Bought His-tagged recombinant protein; also called Murine LAMA4; recombinant mouse LAMA4-His
T2 sequence (looked up): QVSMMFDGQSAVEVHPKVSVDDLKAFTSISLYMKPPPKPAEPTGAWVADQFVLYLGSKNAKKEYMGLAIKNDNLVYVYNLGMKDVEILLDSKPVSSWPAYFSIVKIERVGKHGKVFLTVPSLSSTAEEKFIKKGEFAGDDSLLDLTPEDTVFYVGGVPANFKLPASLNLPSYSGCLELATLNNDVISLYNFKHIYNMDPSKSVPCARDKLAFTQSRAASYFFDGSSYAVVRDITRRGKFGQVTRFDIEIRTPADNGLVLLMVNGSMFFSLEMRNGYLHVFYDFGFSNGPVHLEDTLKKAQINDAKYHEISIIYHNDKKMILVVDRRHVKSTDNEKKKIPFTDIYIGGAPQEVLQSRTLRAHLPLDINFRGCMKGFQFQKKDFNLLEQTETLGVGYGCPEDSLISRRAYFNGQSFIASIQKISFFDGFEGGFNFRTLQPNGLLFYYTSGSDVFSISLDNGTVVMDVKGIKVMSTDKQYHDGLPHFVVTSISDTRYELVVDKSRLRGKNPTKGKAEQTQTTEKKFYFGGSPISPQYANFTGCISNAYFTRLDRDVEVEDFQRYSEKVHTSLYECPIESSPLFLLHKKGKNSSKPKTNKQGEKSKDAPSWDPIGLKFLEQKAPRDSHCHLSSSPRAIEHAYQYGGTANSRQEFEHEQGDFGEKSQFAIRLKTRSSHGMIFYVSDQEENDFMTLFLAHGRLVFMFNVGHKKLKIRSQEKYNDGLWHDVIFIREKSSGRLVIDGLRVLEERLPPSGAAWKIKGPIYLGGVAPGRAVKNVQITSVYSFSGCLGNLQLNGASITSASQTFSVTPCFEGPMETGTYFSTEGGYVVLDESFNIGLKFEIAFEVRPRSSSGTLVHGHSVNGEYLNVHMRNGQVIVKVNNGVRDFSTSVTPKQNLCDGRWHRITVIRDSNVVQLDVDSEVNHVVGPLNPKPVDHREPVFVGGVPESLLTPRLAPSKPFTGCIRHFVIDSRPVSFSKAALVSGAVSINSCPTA


Experiments:
[1] = biological target: T1, LGde3, human LAMA4 G domain with LG3 …; experiment: flow cytometry, 650-labeled MCAM-Fc on 293 cells displaying the variant
Text: LGde1 has a full-length G domain (i.e., LG1-5) with LG1 deleted, LGde2 has a full-length G domain with LG2 deleted, and LGde3 has a full-length G domain with LG3 deleted. Recombinant MCAM-Fc protein was able to specifically bind 293 cells expressing LAMA4 variants LG1-5, LG1-3, and LGde 1 (LG23), but not 293 cells expressing LAMA 4 variants LG4-5, LGde2 (LG13), or LGde3 (LG12).

recombinant laminin 411 = biological target: T3, recombinant laminin 411 (human, UniProt P07942 22-1786; P11047 34-1609, limits assumed); experiment: hMCAM.CHO flow cytometric blocking assay; antibody pre-incubated with laminin 411; blocked partner: human MCAM on CHO cells
T3 construct: also called LAMA4 in complex with its gamma1 and beta1 chains
T3 sequence (chain, as listed by the source limits assumed, chain 1 of 3): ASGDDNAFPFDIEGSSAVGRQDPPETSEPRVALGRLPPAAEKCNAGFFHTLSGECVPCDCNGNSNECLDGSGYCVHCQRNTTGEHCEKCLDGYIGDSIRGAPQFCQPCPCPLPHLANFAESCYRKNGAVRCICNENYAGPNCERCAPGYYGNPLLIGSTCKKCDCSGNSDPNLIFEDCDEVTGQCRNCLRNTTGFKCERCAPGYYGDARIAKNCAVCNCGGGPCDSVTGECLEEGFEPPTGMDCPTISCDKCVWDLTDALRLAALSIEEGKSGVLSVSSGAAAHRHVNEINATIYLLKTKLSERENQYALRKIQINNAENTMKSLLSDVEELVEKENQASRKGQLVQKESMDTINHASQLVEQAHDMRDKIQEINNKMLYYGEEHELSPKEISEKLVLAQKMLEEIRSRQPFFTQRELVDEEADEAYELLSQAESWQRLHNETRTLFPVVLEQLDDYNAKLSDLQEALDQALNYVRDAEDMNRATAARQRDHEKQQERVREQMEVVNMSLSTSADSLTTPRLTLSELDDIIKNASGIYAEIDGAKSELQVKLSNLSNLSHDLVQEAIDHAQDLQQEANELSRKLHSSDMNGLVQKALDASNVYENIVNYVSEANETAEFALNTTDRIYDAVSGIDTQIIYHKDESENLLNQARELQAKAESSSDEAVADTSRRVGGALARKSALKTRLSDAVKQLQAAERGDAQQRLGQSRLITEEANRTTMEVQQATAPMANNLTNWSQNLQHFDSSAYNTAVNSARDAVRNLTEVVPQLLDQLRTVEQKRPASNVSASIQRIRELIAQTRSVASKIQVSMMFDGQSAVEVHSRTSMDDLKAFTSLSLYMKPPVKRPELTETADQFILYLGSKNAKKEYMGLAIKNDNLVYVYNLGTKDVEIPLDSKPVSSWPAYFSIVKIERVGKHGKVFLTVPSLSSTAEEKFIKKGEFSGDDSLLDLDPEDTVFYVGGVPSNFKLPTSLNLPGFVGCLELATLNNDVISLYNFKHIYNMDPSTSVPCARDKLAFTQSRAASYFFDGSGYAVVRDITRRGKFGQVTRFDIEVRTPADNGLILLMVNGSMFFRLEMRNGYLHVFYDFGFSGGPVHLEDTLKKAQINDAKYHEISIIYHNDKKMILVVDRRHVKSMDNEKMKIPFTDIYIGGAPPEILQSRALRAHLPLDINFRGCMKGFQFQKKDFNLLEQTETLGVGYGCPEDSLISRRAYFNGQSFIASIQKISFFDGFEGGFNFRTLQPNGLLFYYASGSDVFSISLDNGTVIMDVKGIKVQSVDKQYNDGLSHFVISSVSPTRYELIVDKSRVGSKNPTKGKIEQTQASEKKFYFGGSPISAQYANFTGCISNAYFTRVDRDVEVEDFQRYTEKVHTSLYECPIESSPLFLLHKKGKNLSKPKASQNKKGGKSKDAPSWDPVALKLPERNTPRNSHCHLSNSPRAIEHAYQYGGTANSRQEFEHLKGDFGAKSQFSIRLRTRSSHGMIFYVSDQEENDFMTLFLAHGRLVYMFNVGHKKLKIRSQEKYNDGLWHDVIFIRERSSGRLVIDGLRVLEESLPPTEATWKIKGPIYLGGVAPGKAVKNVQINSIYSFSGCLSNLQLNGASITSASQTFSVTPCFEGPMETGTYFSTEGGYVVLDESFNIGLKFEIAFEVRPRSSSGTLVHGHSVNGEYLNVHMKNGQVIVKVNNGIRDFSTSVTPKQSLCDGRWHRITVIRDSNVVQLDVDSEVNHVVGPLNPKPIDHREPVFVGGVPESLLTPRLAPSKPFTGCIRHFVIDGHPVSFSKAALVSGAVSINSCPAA
T3 sequence (P07942 22-1786 limits assumed, chain 2 of 3): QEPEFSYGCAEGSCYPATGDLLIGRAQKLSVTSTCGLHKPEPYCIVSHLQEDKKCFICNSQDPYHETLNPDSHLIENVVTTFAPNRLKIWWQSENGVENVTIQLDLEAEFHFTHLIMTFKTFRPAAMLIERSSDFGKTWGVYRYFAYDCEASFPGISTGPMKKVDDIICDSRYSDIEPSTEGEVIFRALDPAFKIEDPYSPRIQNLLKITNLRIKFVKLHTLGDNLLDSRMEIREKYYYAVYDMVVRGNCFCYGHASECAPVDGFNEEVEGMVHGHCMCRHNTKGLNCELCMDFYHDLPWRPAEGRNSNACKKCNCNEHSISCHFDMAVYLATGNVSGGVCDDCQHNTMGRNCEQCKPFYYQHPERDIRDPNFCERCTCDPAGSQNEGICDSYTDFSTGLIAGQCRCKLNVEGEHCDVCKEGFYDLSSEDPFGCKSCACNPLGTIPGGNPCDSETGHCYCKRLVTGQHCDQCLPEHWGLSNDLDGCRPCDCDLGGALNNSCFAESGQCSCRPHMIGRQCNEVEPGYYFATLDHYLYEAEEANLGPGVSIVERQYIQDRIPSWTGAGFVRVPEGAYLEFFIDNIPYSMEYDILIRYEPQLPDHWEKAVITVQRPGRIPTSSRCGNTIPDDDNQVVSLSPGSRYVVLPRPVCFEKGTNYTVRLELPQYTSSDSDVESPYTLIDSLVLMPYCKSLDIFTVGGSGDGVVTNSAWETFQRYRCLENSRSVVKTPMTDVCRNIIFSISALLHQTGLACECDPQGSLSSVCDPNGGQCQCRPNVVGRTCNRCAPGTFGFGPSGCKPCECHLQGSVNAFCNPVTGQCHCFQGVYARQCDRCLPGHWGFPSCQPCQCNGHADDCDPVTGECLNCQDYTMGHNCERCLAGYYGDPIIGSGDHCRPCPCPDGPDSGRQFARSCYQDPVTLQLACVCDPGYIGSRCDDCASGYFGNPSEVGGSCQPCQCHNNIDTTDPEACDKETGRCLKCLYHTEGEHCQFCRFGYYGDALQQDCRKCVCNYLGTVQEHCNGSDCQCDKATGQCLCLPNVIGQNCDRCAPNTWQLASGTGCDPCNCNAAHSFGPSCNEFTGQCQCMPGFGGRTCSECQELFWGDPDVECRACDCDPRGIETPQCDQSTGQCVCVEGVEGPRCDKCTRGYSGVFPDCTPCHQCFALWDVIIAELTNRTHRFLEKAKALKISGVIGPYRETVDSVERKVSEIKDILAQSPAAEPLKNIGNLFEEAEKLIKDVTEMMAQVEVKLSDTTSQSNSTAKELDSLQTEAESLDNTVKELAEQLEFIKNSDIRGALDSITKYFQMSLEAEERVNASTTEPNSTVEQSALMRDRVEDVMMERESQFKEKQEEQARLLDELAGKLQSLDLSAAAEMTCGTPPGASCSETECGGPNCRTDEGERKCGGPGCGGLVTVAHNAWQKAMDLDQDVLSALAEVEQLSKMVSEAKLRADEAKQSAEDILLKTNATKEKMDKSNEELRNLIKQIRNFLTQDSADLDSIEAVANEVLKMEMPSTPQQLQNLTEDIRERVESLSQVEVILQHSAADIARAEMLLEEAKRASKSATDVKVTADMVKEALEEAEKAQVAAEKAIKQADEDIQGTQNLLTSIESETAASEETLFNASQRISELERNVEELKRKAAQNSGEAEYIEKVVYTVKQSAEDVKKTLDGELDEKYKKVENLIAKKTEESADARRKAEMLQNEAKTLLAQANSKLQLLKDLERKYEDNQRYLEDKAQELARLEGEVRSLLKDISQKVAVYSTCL
T3 sequence (P11047 34-1609 limits assumed, chain 3 of 3): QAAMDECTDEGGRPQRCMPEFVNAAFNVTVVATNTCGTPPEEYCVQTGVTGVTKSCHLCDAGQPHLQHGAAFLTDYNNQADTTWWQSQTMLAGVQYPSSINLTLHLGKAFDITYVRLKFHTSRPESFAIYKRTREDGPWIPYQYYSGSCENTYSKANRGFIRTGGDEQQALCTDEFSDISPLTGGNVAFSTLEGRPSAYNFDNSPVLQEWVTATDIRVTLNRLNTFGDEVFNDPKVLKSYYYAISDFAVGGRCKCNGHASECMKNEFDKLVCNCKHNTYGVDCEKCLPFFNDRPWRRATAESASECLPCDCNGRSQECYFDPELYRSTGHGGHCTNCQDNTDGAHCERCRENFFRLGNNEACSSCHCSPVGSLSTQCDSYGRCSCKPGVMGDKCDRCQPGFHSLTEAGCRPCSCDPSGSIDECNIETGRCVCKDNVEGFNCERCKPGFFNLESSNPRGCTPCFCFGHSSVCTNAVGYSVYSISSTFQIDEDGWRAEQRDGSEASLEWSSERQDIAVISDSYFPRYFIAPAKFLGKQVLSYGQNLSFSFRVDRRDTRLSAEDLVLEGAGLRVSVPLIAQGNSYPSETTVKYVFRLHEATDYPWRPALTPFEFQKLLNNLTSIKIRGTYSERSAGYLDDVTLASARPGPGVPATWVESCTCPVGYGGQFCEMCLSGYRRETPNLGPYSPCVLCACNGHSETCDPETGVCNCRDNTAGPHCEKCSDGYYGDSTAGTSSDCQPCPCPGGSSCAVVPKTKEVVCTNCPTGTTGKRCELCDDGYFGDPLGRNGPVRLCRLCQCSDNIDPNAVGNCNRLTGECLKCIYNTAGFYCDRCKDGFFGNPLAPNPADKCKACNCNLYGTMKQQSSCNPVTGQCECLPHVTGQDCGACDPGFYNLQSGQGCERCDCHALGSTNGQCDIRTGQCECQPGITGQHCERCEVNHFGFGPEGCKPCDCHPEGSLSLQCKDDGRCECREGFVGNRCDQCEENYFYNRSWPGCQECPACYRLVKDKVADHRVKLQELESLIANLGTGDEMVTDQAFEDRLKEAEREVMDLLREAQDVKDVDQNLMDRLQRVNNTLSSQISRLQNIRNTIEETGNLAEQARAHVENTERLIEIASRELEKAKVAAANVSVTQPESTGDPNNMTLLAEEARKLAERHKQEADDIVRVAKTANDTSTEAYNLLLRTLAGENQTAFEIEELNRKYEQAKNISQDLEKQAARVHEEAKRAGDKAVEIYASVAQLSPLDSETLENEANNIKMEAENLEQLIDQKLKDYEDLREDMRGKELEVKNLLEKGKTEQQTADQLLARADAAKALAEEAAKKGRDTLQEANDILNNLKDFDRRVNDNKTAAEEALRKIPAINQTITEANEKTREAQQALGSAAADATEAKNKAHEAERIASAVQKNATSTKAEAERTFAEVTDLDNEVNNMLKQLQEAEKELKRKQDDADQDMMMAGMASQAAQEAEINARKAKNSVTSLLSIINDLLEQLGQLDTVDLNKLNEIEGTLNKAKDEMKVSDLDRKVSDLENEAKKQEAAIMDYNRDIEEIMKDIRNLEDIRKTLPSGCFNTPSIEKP
Description: The monoclonal antibodies against LAMA4 were tested for their ability to block the binding of LAMA4 to its ligand MCAM. IgG control antibody, 1C1, 5Al2, 5B5, 19C12, and 12D3 were pre-incubated with recombinant LAMA4 protein, LAMA4-positive healthy mouse brain tissue, or LAMA4-displaying human 293 cells. […] For the mouse brain tissue blocking assay, antibodies were used at concentrations of 2.5 ug/ml or 0.04 ug/ml.
Following two washes with FACS buffer (1% FBS in PBS), cells were resuspended with 650-conjugated anti-pan-laminin antibody (1:1000; Novus Biologicals) and incubated for 20 min at 4° C., and washed again. Cells were analyzed for pan-laminin reactivity by flow cytometry using standard procedures.

mouse His-laminin-α4 = biological target: T2, mouse His-laminin-α4; experiment: ELISA hMCAM-Fc capture blocking assay; antibody pre-incubated with mouse LAMA4-His; blocked partner: captured hMCAM-Fc

Row | Binder | binding result [1] | IC50 (read off the curve) (recombinant laminin 411) | IC50 (read off the curve) (mouse His-laminin-α4)
1 | mouse MCAM-Fc fusion protein (Fc fusion, UniProt Q8R2Y2 24-563, looked up, extracellular domain; Made in house; also called mMCAM-Fc; 650-conjugated mouse MCAM-Fc; not shown: human IgG1 (Fc part of the fusion)) VPGEEKQPVPTPDLVEAEVGSTALLKCGPSRASGNFSQVDWFLIHKERQILIFRVHQGKGQREPGEYEHRLSLQDSVATLALSHVTPHDERMFLCKSKRPRLQDHYVELQVFKAPEEPTIQANVVGIHVDRQELREVATCVGRNGYPIPQVLWYKNSLPLQEEENRVHIQSSQIVESSGLYTLKSVLSARLVKEDKDAQFYCELSYRLPSGNHMKESKEVTVPVFYPAEKVWVEVEPVGLLKEGDHVTIRCLTDGNPQPHFTINKKDPSTGEMEEESTDENGLLSLEPAEKHHSGLYQCQSLDLETTITLSSDPLELLVNYVSDVQVNPTAPEVQEGESLTLTCEAESNQDLEFEWLRDKTGQLLGKGPVLQLNNVRREAGGRYLCMASVPRVPGLNRTQLVSVGIFGSPWMALKERKVWVQENAVLNLSCEASGHPQPTISWNVNGSATEWNPDPQTVVSTLNVLVTPELLETGAECTASNSLGSNTTTIVLKLVTLTTLIPDSSQTTGLSTLTVSPHTRANSTSTEKKLPQPESKGVV | no binding |  | 
2 | mouse monoclonal antibody 19C12 (antibody, V domains shown, Mouse hybridoma antibody; Mouse IgG2b was used as its isotype control; also called m19C12) VH: QVQLQQSGAELVKPGASVKISCKASGYAFSTYWMNWVKQRPGEGLEWIGQIYPGDGDTNYNGKFKGKATLTADKSSSTAYMQLSSLTSEDSAVYFCARSDGYYDYWGQGTTLTVSS VL: NIVLTQSPASLAVSLGQRATISCRASESVDSYGTSFMHWYQQKPGQPPKLLICLASSLESGVPARFSGSGSRTDFTLTIDPVEADDAATYYCQQNNEDPPTFGAGTKLELKR |  | ~0.03 µg/mL | ~0.1 µg/mL
